Laboratory results published in US10662235B2, “Cysteine engineered fibronectin type III domain binding molecules” (Janssen Biotech, Inc., priority 2016, dated 2020).
Residue numbers refer to the chain shown, from its start. Numbers in names are those of the source. Entries after “also recorded” stand apart in the source; their conditions may differ.

B1: ECB18: bispecific P54AR4-83v2 / P114AR5P74-A5 linked to albumin binding domain, SEQ ID 118 (protein)
chain: MLPAPKNLVVSEVTEDSARLSWDDPWAFYESFLIQYQESEKVGEAIVLTVPGSERSYDLTGLKPGTEYTVSIYGVHNVYKDTNMRGLPLSAIFTTAPAPAPAPAPLPAPKNLVVSRVTEDSARLSWTAPDAAFDSFWIRYDEVVVGGEAIVLTVPGSERSYDLTGLKPGTEYYVNILGVKGGSISVPLSAIFTTAPAPAPAPAPLAEAKVLANRELDKYGVSDYYKNLINNAKTVEGVKALLDEILAALP
modifications: Bispecific EGFR/c-Met binding molecule
B2: ECB38: bispecific P54AR4-83v2 / P114AR7P94-A3 linked to albumin binding domain, SEQ ID 120 (protein)
chain: B1 chain with D141F, V143F, V144L, V145G, G146S, Y173V, L177M, S183K, V186P
modifications: Bispecific EGFR/c-Met binding molecule
B3: ECB39: bispecific P53A1R5-17v2 / P114AR7P94-A3 linked to albumin binding domain, SEQ ID 121 (protein)
chain: MLPAPKNLVVSEVTEDSARLSWADPHGFYDSFLIQYQESEKVGEAIVLTVPGSERSYDLTGLKPGTEYTVSIYGVHNVYKDTNMRGLPLSAIFTTAPAPAPAPAPLPAPKNLVVSRVTEDSARLSWTAPDAAFDSFWIRYFEFLGSGEAIVLTVPGSERSYDLTGLKPGTEYVVNIMGVKGGKISPPLSAIFTTAPAPAPAPAPLAEAKVLANRELDKYGVSDYYKNLINNAKTVEGVKALLDEILAALP
modifications: Bispecific EGFR/c-Met binding molecule
B4: 83v2cy5-mal-PEG4-VC-MMAE (conjugate)
chain: MLPAPKNLVVSEVTEDSARLSWDDPWAFYESFLIQYQESEKVGEAIVLTVPGSERSYDLTGLKPGTEYTVSIYGVHNVYKDTNMRGLPLSAIFTTGGHHHHHHC
B5: 83v2cy5-mal-PEG4-VK-MMAE (conjugate)
chain: B4 chain
B6: T48C (protein)
chain 1: MLPAPKNLVVSEVTEDSARLSWDDPWAFYESFLIQYQESEKVGEAIVLCVPGSERSYDLTGLKPGTEYTVSIYGVHNVYKDTNMRGLPLSAIFTT
chain 2: LPAPKNLVVSEVTEDSARLSWDDPWAFYESFLIQYQESEKVGEAIVLCVPGSERSYDLTGLKPGTEYTVSIYGVHNVYKDTNMRGLPLSAIFTT
modifications: EGFR binding FN3 domain; EGFR-binding FN3 domain
B7: S70C (protein)
chain 1: B6 chain 1 with C49T, S71C
chain 2: B6 chain 2 with C48T, S70C
modifications: EGFR binding FN3 domain; EGFR-binding FN3 domain
B8: S89C (protein)
chain 1: B6 chain 1 with C49T, S90C
chain 2: B6 chain 2 with C48T, S89C
modifications: EGFR binding FN3 domain; EGFR-binding FN3 domain
B9: T68C (protein)
chain 1: B6 chain 1 with N7C, C49T
chain 2: B6 chain 2 with N6C, C48T
modifications: EGFR binding FN3 domain; EGFR-binding FN3 domain
B10: T59C (protein)
chain 1: B6 chain 1 with C49T, T60C
chain 2: B6 chain 2 with C48T, T59C
modifications: EGFR binding FN3 domain; EGFR-binding FN3 domain
B11: I91C (protein)
chain: B6 chain 2 with C48T, I91C
B12: R54C (protein)
chain 1: B6 chain 1 with C49T, R55C
chain 2: B6 chain 2 with C48T, R54C
modifications: EGFR binding FN3 domain; EGFR-binding FN3 domain

Tests used:
[1] = Body weight loss / tolerability in H292-HGF xenograft study; conditions: treatment and 2 weeks observation
Procedure: At the time of routine monitoring, the animals were checked for any effects of tumor growth and treatments on normal behavior, such as mobility, visual estimation of food and water consumption, body weight gain/loss (body weights were measured twice weekly), eye/hair matting and any other abnormal effect.
Animals for which the body weight loss exceeded 20%, or for which the mean tumor size of the group exceeds 2000 mm^3 were euthanized. The study was terminated after two weeks of observation after the final dose.

[2] = tested on: H292-HGF human lung cancer xenograft; assay: Efficacy of bispecific molecule and other inhibitors in H292-HGF xenograft model (tumor volume, T/C, T-C); format: in vivo, SCID/Beige mice; conditions: for antitumor activity: H292-HGF xenograft
Procedure: The H292-HGF cells were maintained in vitro in RPMI1640 medium supplemented with fetal bovine serum (10% v/v), and L-glutamine (2 mM) at 37° C. in an atmosphere of 5% CO2 in air. The cells were routinely subcultured twice weekly by trypsin-EDTA treatment. The cells growing in an exponential growth phase were harvested and counted for tumor inoculation.
Each mouse was inoculated subcutaneously at the right flank region with H292-HGF tumor cells (2×10^6) in 0.1 ml of PBS with cultrex (1:1) for tumor development. The treatments were started when the mean tumor size reached 139 mm^3. […] The date of tumor cell inoculation was denoted as day 0.
Before commencement of treatment, all animals were weighed and the tumor volumes were measured. Since the tumor volume can affect the effectiveness of any given treatment, mice were assigned into groups using randomized block design based upon their tumor volumes. […] The randomized block design was used to assign experimental animals to groups. First, the experimental animals were divided into homogeneous blocks according to their initial tumor volume. Secondly, within each block, randomization of experimental animals to treatments was conducted.
The major endpoint was whether tumor growth can be delayed or tumor bearing mice can be cured. Tumor size was measured twice weekly in two dimensions using a caliper, and the volume was expressed in mm^3 using the formula: V=0.5a×b^2 where a and b are the long and short diameters of the tumor, respectively. The tumor size was then used for calculations of both T-C and T/C values. T-C was calculated with T as the time (in days) required for the mean tumor size of the treatment group to reach 1000 mm^3, and C was the time (in days) for the mean tumor size of the control group to reach the same size. The T/C value (in percent) was an indication of antitumor efficacy; T and C were the mean volume of the treated and control groups, respectively, on a given day. Complete tumor regression (CR) is defined as tumors that are reduced to below the limit of palpation (62.5 mm^3). Partial tumor regression (PR) is defined as tumors that are reduced from initial tumor volume. A minimum duration of CR or PR in 3 or more successive tumor measurements is required for a CP or PR to be considered durable.
Statistical analyses of difference in tumor volume among the groups were evaluated using a one-way ANOVA followed by individual comparisons using Games-Howell (equal variance not assumed). All data were analyzed using SPSS 18.0. p<0.05 was considered to be statistically significant.

[3] = tested on: H292-HGF tumor xenografts; assay: Tumor efficacy study with bispecific EGFR/c-Met molecules (tumor growth inhibition); format: in vivo, SCID Beige mice; conditions: 25 mg/kg three times per week (FIG. 10)
Procedure: One week after implantation, mice were stratified into groups with equivalent tumor volumes (mean tumor volume=77.9+/−1.7 mm^3). Mice were dosed three times per week with the bispecific molecules and tumor volumes were recorded twice weekly.

[4] = tested on: MDA-MB-435 cells; assay: Cytotoxicity assay of cytotoxin conjugates in EGFR-negative MDA-MB-435 cells; format: cell-based, human; conditions: EGFR-negative cell line; CellTiter Glo or IncuCyte object count at 66, 72 or 90 hour
Procedure: (§1) Cell killing was assessed by measuring viability of the EGFR-overexpressing human tumor cell line H1573 following exposure to the cysteine variant-cytotoxin conjugates. Cells were plated in black-well, clear bottomed, tissue culture-treated plates (Falcon 353219) at 7000/well in 100 μL/well of phenol red free RPMI media (Gibco 11835-030) with 5% fetal bovine serum (Gibco). Cells were allowed to attach overnight at 37° C. in a humidified 5% CO2 atmosphere. Medium was aspirated from 96-well plate and cells were treated with 50 uL of fresh media and 50 uL of 2× inhibitor made up in fresh media. Cell viability was determined by an endpoint assay with Cell TiterGlo (Promega) at 70 hours. IC50 values were determined by fitting data to the equation for a sigmoidal dose response with variable slope using GraphPad Prism 5 (GraphPad Software). Table 11 reports IC50 values obtained from analysis of the CellTiter Glo data.
Conjugates consisting of ECB147 cysteine variants, 83v2-cys, or Tencon-cys linked to a cytotoxic tubulin inhibitor from the auristatin family (FIG. 2) were tested for target-dependent cytotoxicity in cancer cells. […] Cell killing was assessed by measuring viability of the EGFR-overexpressing human tumor cell lines H1573 and A431 as well as the EGFR-negative tumor cell line MDA-MB-435 following exposure to the protein-cytotoxin conjugates using the procedure described in Example 4.

[5] = Analytical size exclusion chromatography (aggregation state, percent monomer); format: physicochemical; conditions: NEM-conjugated cysteine variants; SEC, Abs280
Procedure: Size exclusion chromatography was used to determine the aggregation state of the FN3 domains binding EGFR. Aliquots (10 μL) of each purified FN3 domain were injected onto a Superdex 75 5/150 column (GE Healthcare) at a flow rate of 0.3 mL/min in a mobile phase of PBS pH 7.4. Elution from the column was monitored by absorbance at 280 nm.
The percent monomer for each protein was determined by integrating the Abs280 signal and comparing the peak in the monomer region (5.5-6 minutes) to the peaks in the oligomer region (4-5.3 minutes).

[6] = tested on: H1573 cells; assay: Cytotoxicity assay of cytotoxin conjugates in H1573 cells; format: cell-based, human; conditions: MMAF conjugates, Cell TiterGlo at 70 hours, read-out: IC50 (cell killing)
Procedure: as §1, with “Cells were plated in black-well, clear bottomed, tissue culture-treated plates (Falcon 353219) at 7000/well in 100 μL/well of phenol red free RPMI media (Gibco 11835-030) with 5% fetal bovine serum (Gibco).” left out, “Software).” for “Software). Table 11 reports IC50 values obtained from analysis of the CellTiter Glo data.”
Conjugates consisting of ECB147 cysteine variants, 83v2-cys, or Tencon-cys linked to a cytotoxic tubulin inhibitor from the auristatin family (FIG. 2) were tested for target-dependent cytotoxicity in cancer cells. The inhibitor was linked to the cysteine-containing protein via a non-cleavable PEG4 linker or an enzyme-cleavable valine-citrulline or valine-lysine linker.

[7] = Thermal stability by differential scanning calorimetry; format: physicochemical; conditions: cysteine-NEM conjugates; for First Scan Tm: DSC 25-100° C., 1° C. per minute; for Second Scan Tm: second identical scan
Procedure: The thermal stability of cysteine-NEM conjugates was assessed by differential scanning calorimetry (DSC). The only the conjugates tested were those determined to express at high levels, conjugate efficiently, and retain EGFR binding. Additionally, cysteine variants within the BC and FG loops were excluded. Stability data was generated by heating a 400 μL aliquot of the variant from 25° C. to 100° C. at a scan rate of 1° C. per minute in a VP-DSC instrument (MicroCal). A second identical scan was completed on the sample in order to assess the reversibility of thermal folding/unfolding. Data was fitted to a 2-state unfolding model in order to calculate the melting temperature (Table 10).
Thermal Stability of c-Met-Binding FN3 Domains Differential scanning calorimetry in PBS was used to assess the stability of each FN3 domain.

[8] = biological target: EGFR (Homo sapiens, UniProt P00533); assay: EGFR binding assay (ELISA) of NEM-conjugated cysteine variants relative to parent

| Molecule | Percent monomer [5] | IC50 [6] | First Scan Tm [7] | Second Scan Tm [7] | further results |
| --- | --- | --- | --- | --- | --- |
| C[C@@H](Oc1cc(-c2cnn(C3CCNCC3)c2)cnc1N)c1c(Cl)ccc(F)c1Cl [Crizotinib] | – | – | – | – | toxicity / body weight loss / tolerability [1]: More severe body weight loss; antitumor activity [2]: no antitumor activity; T/C value ([2]; day 23): 120% |
| C#Cc1cccc(Nc2ncnc3cc(OCCOC)c(OCCOC)cc23)c1 [Erlotinib] | – | – | – | – | toxicity / body weight loss / tolerability [1]: More severe body weight loss |
| B1 | – | – | – | – | tumor growth inhibition (TGI) [3]: delay in tumor growth |
| B2 | – | – | – | – | toxicity / body weight loss / tolerability [1]: Slight toxicity; also recorded: tolerated in 7 out of 10 mice; tumor growth inhibition (TGI) [3]: showed the most efficacy; antitumor activity [2]: complete tumor regression (CR) in all mice; also recorded: complete response |
| B3 | – | – | – | – | tumor growth inhibition (TGI) [3]: showed the most efficacy |
| B4 | – | – | – | – | IC50 [4]: 512 nM |
| B5 | – | – | – | – | IC50 [4]: 62 nM |
| B6 | 90% | 0.59 nM | 72 °C | 72 °C | – |
| B7 | 100% | 1.14 nM | 73 °C | 72 °C | – |
| B8 | 96% | 0.94 nM | 72 °C | 71 °C | – |
| B9 | 100% | – | 72 °C | 72 °C | EGFR binding relative to P54AR4-83v2 parent, 10 nM variant in assay ([8]; 10 nM): 0.83; EGFR binding relative to P54AR4-83v2 parent, 100 nM variant in assay ([8]; 100 nM): 1.04; EGFR binding relative to P54AR4-83v2 parent, 500 nM variant in assay ([8]; 500 nM): 0.95 |
| B10 | 100% | 0.44 nM | 67 °C | 67 °C | – |
| B11 | 100% | 0.54 nM | 70 °C | 69 °C | – |
| B12 | 96% | 0.37 nM | 65 °C | 65 °C | – |
